Laboratory results from the supplement of paper PMC10598134.
± gives the standard deviation.

Experiment: collision cross section of modified peptide (TIMS, N2, iRT-aligned); higher = larger / more extended gas-phase ion
Summary of the method: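 On a timsTOF Pro/HT (dda-PASEF, nitrogen, ~2.4 mbar), synthetic peptide pools were analysed after a 120-min nanoflow C18 separation at 60 °C and identified in MaxQuant. Three reference ions served for 1/K0 calibration, with run-wise alignment to the median iRT peptide deviation. Collision cross section comes from the Mason-Schamp equation, using the most abundant feature per charge state averaged over 1–3 technical replicates.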

[1] = charge state: 2, modification: Citrullination (R)
[2] = charge state: 3, modification: Citrullination (R)
[3] = charge state: 2, modification: Acetyl (K)
[4] = charge state: 3, modification: Acetyl (K)
[5] = charge state: 2, modification: Hydroxyproline
[6] = charge state: 3, modification: Hydroxyproline
[7] = charge state: 2, modification: Dimethyl (K)
[8] = charge state: 3, modification: Dimethyl (K)
[9] = charge state: 3, modification: Methyl (K)
[10] = charge state: 2, modification: hydroxyisobutyryl
[11] = charge state: 3, modification: hydroxyisobutyryl
[12] = charge state: 2, modification: Nitro (Y)
[13] = charge state: 2, modification: Trimethyl (K)
[14] = charge state: 3, modification: Trimethyl (K)
[15] = charge state: 2, modification: Crotonyl
[16] = charge state: 2, modification: Butyryl
[17] = charge state: 2, modification: Succinyl
[18] = charge state: 3, modification: Succinyl
[19] = charge state: 2, modification: Glutarylation
[20] = charge state: 3, modification: Glutarylation
[21] = charge state: 3, modification: Methyl (R)
[22] = charge state: 2, modification: Biotin
[23] = charge state: 2, modification: Propionyl
[24] = charge state: 2, modification: Formyl
[25] = charge state: 2, modification: Methyl (K)
[26] = charge state: 2, modification: GlyGly (K)
[27] = charge state: 3, modification: GlyGly (K)

AVPSSPAGSAARGR [_AVPSSPAGSAAR(Citrullination (R))GR_]
collision cross section [1]: 365.96 ± 0.94 Å² | collision cross section [2]: 481.37 ± 0.56 Å²

GFALVGVGSEASSKK [_GFALVGVGSEASSK(Acetyl (K))K_]
collision cross section [3]: 429.07 ± 17 Å² | collision cross section [4]: 499.93 ± 0.98 Å²

GGQGPPGPQGPIGYPGPR [_GGQGPPGPQGPIGYP(Hydroxyproline)GPR_]
collision cross section [5]: 420.55 ± 2.1 Å² | collision cross section [6]: 474.06 ± 0.36 Å²

ASNAAVKLAESK [_ASNAAVK(Dimethyl (K))LAESK_]
collision cross section [7]: 387.86 ± 0.56 Å² | collision cross section [8]: 452.98 ± 1.6 Å²

PGGEGPQCEKTTDVK [_PGGEGPQCEK(Methyl (K))TTDVK_]
collision cross section [9]: 460.64 Å²

VSPASSVDSNIPSSQGYKK [_VSPASSVDSNIPSSQGYK(hydroxyisobutyryl)K_]
collision cross section [10]: 468.85 ± 0.27 Å² | collision cross section [11]: 562.43 ± 0.42 Å²

PGLKGEQGEPGAPGIR [_PGLKGEQGEPGAP(Hydroxyproline)GIR_]
collision cross section [5]: 410.74 ± 0.55 Å² | collision cross section [6]: 508.4 ± 1.3 Å²

GYGVIFANGNR [_GY(Nitro (Y))GVIFANGNR_]
collision cross section [12]: 360.58 ± 1.2 Å²

IQQELQTAKK [_IQQELQTAK(Trimethyl (K))K_]
collision cross section [13]: 374.97 ± 0.61 Å² | collision cross section [14]: 436.54 ± 2.4 Å²

LLEQKTQESQK [_LLEQK(Crotonyl)TQESQK_]
collision cross section [15]: 398.38 ± 1.1 Å²

SDDESSQKDIK [_SDDESSQK(Butyryl)DIK_]
collision cross section [16]: 378.95 ± 0.72 Å²

VNVEAPDVNLEGLGGKLK [_VNVEAPDVNLEGLGGK(Succinyl)LK_]
collision cross section [17]: 466.17 ± 1.4 Å² | collision cross section [18]: 548.55 ± 1.1 Å²

VSPASSVDSNIPSSQGYKK [_VSPASSVDSNIPSSQGYK(Gluratylation)K_]
collision cross section [19]: 466.49 ± 3 Å² | collision cross section [20]: 552.93 ± 0.14 Å²

SKLLFSNTAAQK [_SK(Gluratylation)LLFSNTAAQK_]
collision cross section [19]: 403.03 ± 0.5 Å²

SRGGGGNFGPGPGSNFR [_SR(Methyl (R))GGGGNFGPGPGSNFR_]
collision cross section [21]: 461.66 ± 1.4 Å²

SLKLNTAEDAK [_SLK(Biotin)LNTAEDAK_]
collision cross section [22]: 397.96 Å²

VYIASSSGSTAIKK [_VYIASSSGSTAIK(Propionyl)K_]
collision cross section [23]: 415.66 ± 0.38 Å²

SDDESSQKDIK [_SDDESSQK(Formyl)DIK_]
collision cross section [24]: 368.14 ± 1.1 Å²

PSVGSQSNQAGQGKR [_PSVGSQSNQAGQGK(Propionyl)R_]
collision cross section [23]: 412.6 ± 0.64 Å² | collision cross section (charge state: 3, modification: Propionyl): 473.2 ± 1.4 Å²

DYSSGFGGKYGVQADR [_DYSSGFGGK(Succinyl)YGVQADR_]
collision cross section [17]: 438.99 ± 0.83 Å²

GRGAANDSTQFTVAGR [_GR(Citrullination (R))GAANDSTQFTVAGR_]
collision cross section [1]: 411.84 ± 0.81 Å² | collision cross section [2]: 488.59 ± 0.56 Å²

VTLEVGKVIQQGR [_VTLEVGK(Malonyl)VIQQGR_]
collision cross section (charge state: 2, modification: Malonyl): 413.16 ± 1.2 Å² | collision cross section (charge state: 3, modification: Malonyl): 480.87 ± 1.8 Å²

AGPNASIISLKSDK [_AGPNASIISLK(Butyryl)SDK_]
collision cross section [16]: 413.93 ± 1.1 Å²

ISSNFSSIIAEKLR [_ISSNFSSIIAEK(hydroxyisobutyryl)LR_]
collision cross section [10]: 431.4 ± 1.4 Å²

GEIGPPGPR [_GEIGPP(Hydroxyproline)GPR_]
collision cross section [5]: 319.92 ± 1.1 Å²

SPDEAYAIAKK [_SPDEAYAIAK(Succinyl)K_]
collision cross section [17]: 374.28 ± 0.24 Å² | collision cross section [18]: 452.6 ± 2.6 Å²

GSLEKGSPEDK [_GSLEK(Methyl (K))GSPEDK_]
collision cross section [25]: 357.31 ± 0.34 Å² | collision cross section [9]: 434.75 ± 5.3 Å²

SPPLPEHQKIPCNSAEPK [_SPPLPEHQK(Methyl (K))IPCNSAEPK_]
collision cross section [9]: 546.75 Å²

TPNLYIYSKK [_TPNLYIYSK(Trimethyl (K))K_]
collision cross section [13]: 381.37 ± 0.61 Å² | collision cross section [14]: 442.31 Å²

GRGAPPPPPSR [_GR(Citrullination (R))GAPPPPPSR_]
collision cross section [1]: 339.21 ± 1.2 Å²

SLGEPAAGEGSAKR [_SLGEPAAGEGSAK(Methyl (K))R_]
collision cross section [25]: 408.5 ± 0.81 Å² | collision cross section [9]: 480.43 ± 2.6 Å²

LQEKVESAQSEQK [_LQEK(hydroxyisobutyryl)VESAQSEQK_]
collision cross section [10]: 422.92 ± 0.52 Å² | collision cross section [11]: 502.35 ± 2.1 Å²

GEVQVSDKER [_GEVQVSDK(Dimethyl (K))ER_]
collision cross section [7]: 362.93 ± 0.58 Å² | collision cross section [8]: 422.58 ± 1.6 Å²

SSGPGGQNVNKVNSK [_SSGPGGQNVNK(Biotin)VNSK_]
collision cross section [22]: 422.28 ± 2 Å² | collision cross section (charge state: 3, modification: Biotin): 467.62 ± 0.34 Å²

DYVSQFEGSALGK [_DY(Phospho (Y))VSQFEGSALGK_]
collision cross section (charge state: 2, modification: Phospho (Y)): 391.59 ± 0.64 Å²

SGFGKFER [_SGFGK(Gluratylation)FER_]
collision cross section [19]: 340.69 ± 0.69 Å²

SLGEPAAGEGSAKR [_SLGEPAAGEGSAK(Crotonyl)R_]
collision cross section [15]: 387.18 ± 0.89 Å² | collision cross section (charge state: 3, modification: Crotonyl): 487.34 ± 1.3 Å²

VETTVTSLKTK [_VETTVTSLK(Crotonyl)TK_]
collision cross section [15]: 389.71 ± 0.89 Å²

DLGKFQVATDALK [_DLGK(Formyl)FQVATDALK_]
collision cross section [24]: 403.92 ± 0.55 Å²

RGGFAVQAK [_R(Citrullination (R))GGFAVQAK_]
collision cross section [1]: 326.29 ± 0.63 Å²

TVSKVDDFLANEAK [_TVSK(Formyl)VDDFLANEAK_]
collision cross section [24]: 415.84 ± 0.18 Å²

LTEKELAEAASK [_LTEK(GlyGly (K))ELAEAASK_]
collision cross section [26]: 404.34 ± 0.36 Å² | collision cross section [27]: 453.97 ± 1.1 Å²

VGVEVPDVNIEGPEGKLK [_VGVEVPDVNIEGPEGK(Methyl (K))LK_]
collision cross section [25]: 459.11 ± 16 Å² | collision cross section [9]: 535.61 ± 7.1 Å²

ILDLKTGTVK [_ILDLK(Propionyl)TGTVK_]
collision cross section [23]: 359.51 ± 0.33 Å²

VETTVTSLKTK [_VETTVTSLK(Methyl (K))TK_]
collision cross section [25]: 381.5 ± 1.8 Å² | collision cross section [9]: 455.24 ± 7.2 Å²

AAINQKLIETGER [_AAINQK(Formyl)LIETGER_]
collision cross section [24]: 399.86 ± 0.2 Å²

VTLEVGKVIQQGR [_VTLEVGK(Propionyl)VIQQGR_]
collision cross section [23]: 410.06 ± 0.37 Å²

IGNSYFKEEK [_IGNSYFK(hydroxyisobutyryl)EEK_]
collision cross section [10]: 380.01 ± 0.8 Å²

DTPTSAGPNSFNKGK [_DTPTSAGPNSFNK(Propionyl)GK_]
collision cross section [23]: 410.13 ± 0.64 Å²

GGPGSTLSFVGKR [_GGPGSTLSFVGK(Trimethyl (K))R_]
collision cross section [13]: 401.16 Å² | collision cross section [14]: 424.62 ± 2.4 Å²

LDHLAEKFR [_LDHLAEK(Gluratylation)FR_]
collision cross section [19]: 375.69 ± 0.099 Å² | collision cross section [20]: 446.6 ± 1.7 Å²

VGTASVLQPVKK [_VGTASVLQPVK(Methyl (K))K_]
collision cross section [25]: 392.83 ± 0.43 Å² | collision cross section [9]: 460.66 ± 3.8 Å²

GTITVSAQELKDNR [_GTITVSAQELK(Acetyl (K))DNR_]
collision cross section [3]: 415.96 ± 1.9 Å² | collision cross section [4]: 479.46 ± 0.78 Å²

SKHLQEQLNELK [_SK(Gluratylation)HLQEQLNELK_]
collision cross section [19]: 423.49 ± 0.97 Å² | collision cross section [20]: 496.16 ± 2 Å²

GAPGGRGAQLSVPSPAR [_GAPGGR(Citrullination (R))GAQLSVPSPAR_]
collision cross section [1]: 412.31 ± 0.55 Å²

PGGEGPQCEKTTDVK [_PGGEGPQCEK(GlyGly (K))TTDVK_]
collision cross section [26]: 422.06 ± 1.9 Å² | collision cross section [27]: 492.2 ± 3 Å²

VGIDTPDIDIHGPEGKLK [_VGIDTPDIDIHGPEGK(Gluratylation)LK_]
collision cross section [19]: 497.76 ± 0.79 Å² | collision cross section [20]: 542.69 ± 1.1 Å²

LTSLNVKYNNDK [_LTSLNVK(Butyryl)YNNDK_]
collision cross section [16]: 414.27 ± 0.78 Å²

TGGTQTDLFTCGKCK [_TGGTQTDLFTCGK(Gluratylation)CK_]
collision cross section [19]: 442.58 Å²

FSAYIKNSNPALNDNLEK [_FSAYIK(hydroxyisobutyryl)NSNPALNDNLEK_]
collision cross section [10]: 489.27 ± 0.86 Å² | collision cross section [11]: 551.92 ± 1.1 Å²

AGQKLIDVNHYAK [_AGQK(Gluratylation)LIDVNHYAK_]
collision cross section [19]: 437.49 ± 0.96 Å² | collision cross section [20]: 489.6 ± 0.95 Å²

TLHLSHLNRFPAR [_TLHLSHLNR(Methyl (R))FPAR_]
collision cross section [21]: 503.65 Å²

GDQGEPGPSGNPGK [_GDQGEPGPSGNP(Hydroxyproline)GK_]
collision cross section [5]: 343.56 ± 0.79 Å²

IQTKAGEATVK [_IQTK(GlyGly (K))AGEATVK_]
collision cross section [26]: 373.63 ± 0.56 Å² | collision cross section [27]: 455.83 Å²

ISALQGKLSK [_ISALQGK(GlyGly (K))LSK_]
collision cross section [26]: 369.61 ± 1 Å² | collision cross section [27]: 430.51 ± 2 Å²

GLATFPSRGAK [_GLATFPSR(Citrullination (R))GAK_]
collision cross section [1]: 353.86 ± 0.53 Å²

FLQEFYQDDELGK [_FLQEFY(Nitro (Y))QDDELGK_]
collision cross section [12]: 428.07 ± 1.5 Å²
